According to article PMC9902482 (2023):
Values joined by “and” are separate entries in the source; they are usually repeats but may differ in a detail not shown here. Equal values may be shown once.

T1: Lec domain of ADGRL3 (human, UniProt Q9HAR2 24-126, biotin on the Avi-tag (BirA) in the flow cytometry experiments)
T1 chain: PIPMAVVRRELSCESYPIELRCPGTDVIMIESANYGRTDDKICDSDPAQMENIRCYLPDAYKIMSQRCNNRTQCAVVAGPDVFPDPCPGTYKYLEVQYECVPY

B1: synthetic antibody fragment (sAB) LK30 (Fab, V domains shown)
VH: EVQLVESGGGLVQPGGSLRLSCAASGFNIYYSSIHWVRQAPGKGLEWVAYISPYSGSTSYADSVKGRFTISADTSKNTAYLQMNSLRAEDTAVYYCARYKYGQGHMGAFDYWGQGTLVTVSS
VL: DIQMTQSPSSLSASVGDRVTITCRASQSVSSAVAWYQQKPGKAPKLLIYSASSLYSGVPSRFSGSRSGTDFTLTISSLQPEDFATYYCQQSNTELVTFGQGTKVEIK
B2: ADGRL3 Lec/Olf fragment (domain or fragment)
chain: PIPMAVVRRELSCESYPIELRCPGTDVIMIESANYGRTDDKICDSDPAQMENIRCYLPDAYKIMSQRCNNRTQCAVVAGPDVFPDPCPGTYKYLEVQYECVPYKVEQKVFLCPGLLKGVYQSEHLFESDHQSGAWCKDPLQASDKIYYMPWTPYRTDTLTEYSSKDDFIAGRPTTTYKLPHRVDGTGFVVYDGALFFNKERTRNIVKFDLRTRIKSGEAIIANANYHDTSPYRWGGKSDIDLAVDENGLWVIYATEQNNGKIVISQLNPYTLRIEGTWDTAYDKRSASNAFMICGILYVVKSVYEDDDNEATGNKIDYIYNTDQSKDSLVDVPFPNSYQYIAAVDYNPRDNLLYVWNNYHVVKYSLDFGPLD
B3: full-length extracellular region (ECR) of ADGRL3 (domain or fragment)
chain 1: FSRAPIPMAVVRRELSCESYPIELRCPGTDVIMIESANYGRTDDKICDSDPAQMENIRCYLPDAYKIMSQRCNNRTQCAVVAGPDVFPDPCPGTYKYLEVQYECVPYKVEQKVFLCPGLLKGVYQSEHLFESDHQSGAWCKDPLQASDKIYYMPWTPYRTDTLTEYSSKDDFIAGRPTTTYKLPHRVDGTGFVVYDGALFFNKERTRNIVKFDLRTRIKSGEAIIANANYHDTSPYRWGGKSDIDLAVDENGLWVIYATEQNNGKIVISQLNPYTLRIEGTWDTAYDKRSASNAFMICGILYVVKSVYEDDDNEATGNKIDYIYNTDQSKDSLVDVPFPNSYQYIAAVDYNPRDNLLYVWNNYHVVKYSLDFGPLDSRSGQAHHGQVSYISPPIHLDSELERPSVKDISTTGPLGMGSTTTSTTLRTTTLSPGRSTTPSVSGRRNRSTSTPSPAVEVLDDMTTHLPSASSQIPALEESCEAVEAREIMWFKTRQGQIAKQPCPAGTIGVSTYLCLAPDGIWDPQGPDLSNCSSPWVNHITQKLKSGETAANIARELAEQTRNHLNAGDITYSVRAMDQLVGLLDVQLRNLTPGGKDSAARSLNKAMVETVNNLLQPQALNAWRDLTTSDQLRAATMLLHTVEESAFVLADNLLKTDIVRENTDNIKLEVARLSTEGNLEDLKFPENMGHGSTIQLSANTLKQNGRNGEIRVAFVLYNNLGPYLSTENASMKLGTEALSTNHSVIVNSPVITAAINKEFSNKVYLADPVVFTVKHIKQSEENFNPNCSFWSYSKRTMTGYWSTQGCRLLTTNKTHTTCSCNHL
chain 2: TNFAVLMAHVEVKHSDAVHDL
modifications: biotin on the Avi-tag (BirA) where used biotinylated

What was measured:
[1] = biological target: B3; test: SPR
Lec domain of ADGRL3 = biological target: T1, Lec domain of ADGRL3; test: SPR
ADGRL3 Lec/Olf fragment [2] = biological target: B2; test: SPR
[3] = biological target: B3; test: SPR
ADGRL3 Lec/Olf fragment [4] = biological target: B2; test: SPR
LK31 = test: SPR
LK12 = test: SPR
LK29 = test: SPR
LK25 = test: ELISA

Row | Binder | koff [1] | koff (Lec domain of ADGRL3) | koff (ADGRL3 Lec/Olf fragment [2]) | Kd [3] | Kd (ADGRL3 Lec/Olf fragment [4]) | Kd (LK31) | koff (LK31) | Kd (LK12) | koff (LK12) | Kd (LK29) | koff (LK29) | Kd (LK25)
1 | B1 | 0.0058 s⁻¹ | 0.0113 s⁻¹ | 0.0066 s⁻¹ and 0.0049 s⁻¹ | 4.2 nM | 5.4 nM and 3.7 nM | – | – | – | – | – | – | –
2 | B2 | – | – | – | – | – | 3.6 nM | 0.0029 s⁻¹ | 12.5 nM | 0.0099 s⁻¹ | 2.5 nM | 0.001 s⁻¹ | –
3 | B3 | – | – | – | – | – | 3.8 nM | 0.002 s⁻¹ | 8.3 nM | 0.0032 s⁻¹ | 4.1 nM | 0.0015 s⁻¹ | 56.8 nM
